Experimental data: the supplement of paper PMC10065799, “High-throughput profiling of sequence recognition by tyrosine kinases and SH2 domains using bacterial peptide display” (eLife, 2023)

Key:
Grb2 SH2 = Grb2 SH2 (UniProt P62993); assay: SH2 binding enrichment of the phosphorylated peptide, bacterial display (enrichment ratio); higher = better substrate or ligand; peptides without Tyr show the background
c-Src SH2 = assay: as above
SHP2-C SH2 = assay: as above
Hck = Hck (UniProt P08631); assay: phosphorylation enrichment, bacterial display (enrichment ratio); higher = better substrate or ligand; peptides without Tyr show the background
EPHB2 = EPHB2 (UniProt P29323); assay: as above
Jak2 = Jak2 (UniProt O60674); assay: as above
Fer (mouse) = assay: as above
FGFR3 = FGFR3 (UniProt P22607); assay: as above
AncSZ = assay: as above
FGFR1 = FGFR1 (UniProt P11362); assay: as above
c-Src = assay: as above
MERTK = MERTK (UniProt Q12866); assay: as above
EPHB1 = EPHB1 (UniProt P54762); assay: as above
Fyn = Fyn (UniProt P06241); assay: as above
Fes = Fes (UniProt P07332); assay: as above
c-Abl (mouse) = assay: as above
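Wherever SH2 binding enrichment of the phosphorylated peptide, bacterial display is given: peptide library displayed on the E. coli surface as eCPX fusions, selected cells deep-sequenced, score is each peptide's frequency after selection divided by its frequency in the input.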
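Wherever phosphorylation enrichment, bacterial display is given: 11-residue human phosphosite peptides and single-mutation variants displayed on the E. coli surface, counted by deep sequencing, each peptide's frequency after selection divided by its frequency in the unselected input library; frequency after pTyr selection over input frequency; kinase dosed for 20-30% of maximal phosphorylation in three min.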

Sequence of FGFR3 (P22607 whole entry, looked up): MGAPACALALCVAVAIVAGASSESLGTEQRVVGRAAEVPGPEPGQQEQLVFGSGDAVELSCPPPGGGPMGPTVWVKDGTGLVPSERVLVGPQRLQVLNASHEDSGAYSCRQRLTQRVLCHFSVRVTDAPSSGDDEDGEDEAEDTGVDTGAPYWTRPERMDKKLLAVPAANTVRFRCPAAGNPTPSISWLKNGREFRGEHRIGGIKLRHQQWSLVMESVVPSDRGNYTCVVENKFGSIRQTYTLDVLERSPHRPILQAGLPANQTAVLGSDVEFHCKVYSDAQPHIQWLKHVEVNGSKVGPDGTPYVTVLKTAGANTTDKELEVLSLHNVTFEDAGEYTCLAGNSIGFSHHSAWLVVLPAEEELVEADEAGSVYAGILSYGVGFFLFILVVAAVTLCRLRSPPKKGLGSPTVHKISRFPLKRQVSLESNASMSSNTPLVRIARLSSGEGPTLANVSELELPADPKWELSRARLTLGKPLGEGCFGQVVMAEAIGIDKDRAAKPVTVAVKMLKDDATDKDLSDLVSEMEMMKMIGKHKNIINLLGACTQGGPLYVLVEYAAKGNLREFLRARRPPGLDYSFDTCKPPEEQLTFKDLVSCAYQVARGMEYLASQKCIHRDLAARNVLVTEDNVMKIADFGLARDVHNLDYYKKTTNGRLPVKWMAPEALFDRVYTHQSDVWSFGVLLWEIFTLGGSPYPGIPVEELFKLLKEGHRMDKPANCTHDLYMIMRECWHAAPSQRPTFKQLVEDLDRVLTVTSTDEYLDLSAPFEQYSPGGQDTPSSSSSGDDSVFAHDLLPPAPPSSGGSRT
Sequence of FGFR1 (P11362 whole entry, looked up): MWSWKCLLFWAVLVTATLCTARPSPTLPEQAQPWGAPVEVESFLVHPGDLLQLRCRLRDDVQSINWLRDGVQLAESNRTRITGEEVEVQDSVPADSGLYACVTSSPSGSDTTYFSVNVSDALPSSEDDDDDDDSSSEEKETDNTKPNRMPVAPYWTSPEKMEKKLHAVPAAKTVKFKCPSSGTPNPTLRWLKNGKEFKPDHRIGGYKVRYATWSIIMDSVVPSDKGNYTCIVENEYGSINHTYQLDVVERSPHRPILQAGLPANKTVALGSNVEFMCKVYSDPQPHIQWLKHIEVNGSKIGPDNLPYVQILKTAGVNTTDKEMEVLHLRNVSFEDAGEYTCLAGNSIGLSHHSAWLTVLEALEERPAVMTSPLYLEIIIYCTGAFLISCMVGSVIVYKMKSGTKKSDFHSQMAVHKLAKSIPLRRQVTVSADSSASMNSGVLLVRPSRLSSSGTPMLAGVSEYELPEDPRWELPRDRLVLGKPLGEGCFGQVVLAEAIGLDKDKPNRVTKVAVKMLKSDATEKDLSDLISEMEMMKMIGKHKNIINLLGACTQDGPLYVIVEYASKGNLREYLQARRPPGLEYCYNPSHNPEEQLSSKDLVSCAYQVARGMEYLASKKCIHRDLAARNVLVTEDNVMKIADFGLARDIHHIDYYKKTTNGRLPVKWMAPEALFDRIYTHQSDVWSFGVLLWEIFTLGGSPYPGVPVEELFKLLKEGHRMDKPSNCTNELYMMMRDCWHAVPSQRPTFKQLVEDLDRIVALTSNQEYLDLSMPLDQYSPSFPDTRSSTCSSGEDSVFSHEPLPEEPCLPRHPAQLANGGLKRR
Sequence of EPHB2 (P29323 whole entry, looked up): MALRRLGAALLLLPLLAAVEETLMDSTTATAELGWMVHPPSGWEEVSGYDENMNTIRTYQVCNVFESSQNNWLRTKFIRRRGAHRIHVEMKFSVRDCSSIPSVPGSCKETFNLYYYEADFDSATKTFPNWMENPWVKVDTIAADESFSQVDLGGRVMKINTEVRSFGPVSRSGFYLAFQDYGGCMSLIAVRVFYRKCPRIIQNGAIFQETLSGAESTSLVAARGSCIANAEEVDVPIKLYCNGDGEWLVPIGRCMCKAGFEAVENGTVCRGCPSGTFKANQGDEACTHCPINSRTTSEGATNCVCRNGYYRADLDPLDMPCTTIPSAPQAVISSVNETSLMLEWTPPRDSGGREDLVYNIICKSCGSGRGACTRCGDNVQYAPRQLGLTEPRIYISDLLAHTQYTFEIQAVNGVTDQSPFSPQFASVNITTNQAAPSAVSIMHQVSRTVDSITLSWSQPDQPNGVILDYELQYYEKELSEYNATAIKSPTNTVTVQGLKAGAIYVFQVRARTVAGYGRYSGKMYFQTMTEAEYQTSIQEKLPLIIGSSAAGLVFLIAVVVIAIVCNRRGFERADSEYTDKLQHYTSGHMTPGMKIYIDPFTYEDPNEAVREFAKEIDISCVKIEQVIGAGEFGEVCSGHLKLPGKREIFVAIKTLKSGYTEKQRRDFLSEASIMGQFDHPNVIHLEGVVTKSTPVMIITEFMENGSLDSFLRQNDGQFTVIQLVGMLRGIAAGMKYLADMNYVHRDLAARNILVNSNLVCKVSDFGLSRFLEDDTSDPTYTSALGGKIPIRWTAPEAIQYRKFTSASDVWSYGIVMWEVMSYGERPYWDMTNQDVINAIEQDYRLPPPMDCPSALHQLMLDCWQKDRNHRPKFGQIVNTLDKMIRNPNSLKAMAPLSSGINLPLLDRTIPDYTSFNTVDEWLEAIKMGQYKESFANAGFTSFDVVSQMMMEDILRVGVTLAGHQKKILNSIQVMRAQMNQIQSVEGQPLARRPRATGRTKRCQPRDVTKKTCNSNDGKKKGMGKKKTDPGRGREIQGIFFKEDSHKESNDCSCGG
Sequence of Fes (P07332 whole entry, looked up): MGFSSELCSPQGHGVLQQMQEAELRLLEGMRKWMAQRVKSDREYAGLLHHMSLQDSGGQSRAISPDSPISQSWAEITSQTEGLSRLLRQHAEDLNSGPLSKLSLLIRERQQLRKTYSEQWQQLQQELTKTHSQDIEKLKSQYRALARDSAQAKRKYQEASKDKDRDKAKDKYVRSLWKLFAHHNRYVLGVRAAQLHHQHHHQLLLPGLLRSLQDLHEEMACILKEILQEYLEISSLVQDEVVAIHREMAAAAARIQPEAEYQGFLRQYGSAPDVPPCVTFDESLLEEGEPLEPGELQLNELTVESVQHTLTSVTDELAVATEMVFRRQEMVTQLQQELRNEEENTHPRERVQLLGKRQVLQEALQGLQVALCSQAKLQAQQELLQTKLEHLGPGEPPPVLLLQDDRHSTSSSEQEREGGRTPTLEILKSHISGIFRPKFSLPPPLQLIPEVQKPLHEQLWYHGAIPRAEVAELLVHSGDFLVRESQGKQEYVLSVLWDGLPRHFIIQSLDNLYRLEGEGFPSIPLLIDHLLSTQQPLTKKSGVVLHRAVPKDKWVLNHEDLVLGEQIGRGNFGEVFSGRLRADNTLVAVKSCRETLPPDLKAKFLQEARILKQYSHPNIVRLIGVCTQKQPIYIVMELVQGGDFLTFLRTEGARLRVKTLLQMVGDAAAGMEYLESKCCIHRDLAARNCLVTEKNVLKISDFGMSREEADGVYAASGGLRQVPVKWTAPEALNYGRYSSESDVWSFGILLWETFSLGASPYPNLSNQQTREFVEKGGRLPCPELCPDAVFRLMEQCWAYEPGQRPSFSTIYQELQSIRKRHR
Sequence of EPHB1 (P54762 whole entry, looked up): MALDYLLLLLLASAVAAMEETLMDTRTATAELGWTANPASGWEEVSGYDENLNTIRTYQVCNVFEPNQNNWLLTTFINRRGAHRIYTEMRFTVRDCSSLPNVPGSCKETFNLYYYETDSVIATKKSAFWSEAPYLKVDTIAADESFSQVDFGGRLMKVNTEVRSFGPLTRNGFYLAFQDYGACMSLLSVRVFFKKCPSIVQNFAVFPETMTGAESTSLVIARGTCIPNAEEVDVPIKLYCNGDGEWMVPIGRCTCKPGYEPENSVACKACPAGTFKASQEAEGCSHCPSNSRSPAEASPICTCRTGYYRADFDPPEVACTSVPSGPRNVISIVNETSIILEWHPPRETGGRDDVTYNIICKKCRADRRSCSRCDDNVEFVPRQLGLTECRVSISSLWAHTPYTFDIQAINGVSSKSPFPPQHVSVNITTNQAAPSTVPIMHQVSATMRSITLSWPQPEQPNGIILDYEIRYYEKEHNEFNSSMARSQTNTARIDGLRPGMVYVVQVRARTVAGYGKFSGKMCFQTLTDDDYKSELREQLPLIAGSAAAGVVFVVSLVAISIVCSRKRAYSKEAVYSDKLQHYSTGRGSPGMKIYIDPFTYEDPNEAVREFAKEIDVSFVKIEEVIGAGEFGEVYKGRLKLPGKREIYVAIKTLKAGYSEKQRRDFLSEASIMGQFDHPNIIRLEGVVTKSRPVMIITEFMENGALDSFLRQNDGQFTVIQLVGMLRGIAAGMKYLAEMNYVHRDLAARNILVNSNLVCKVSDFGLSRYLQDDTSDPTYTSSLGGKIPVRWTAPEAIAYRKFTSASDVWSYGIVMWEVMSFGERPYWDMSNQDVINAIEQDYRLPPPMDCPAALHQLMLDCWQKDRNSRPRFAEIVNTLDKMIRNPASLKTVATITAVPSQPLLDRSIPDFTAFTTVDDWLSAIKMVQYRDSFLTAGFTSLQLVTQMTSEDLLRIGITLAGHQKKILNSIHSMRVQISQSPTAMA
Sequence of Fyn (P06241 whole entry, looked up): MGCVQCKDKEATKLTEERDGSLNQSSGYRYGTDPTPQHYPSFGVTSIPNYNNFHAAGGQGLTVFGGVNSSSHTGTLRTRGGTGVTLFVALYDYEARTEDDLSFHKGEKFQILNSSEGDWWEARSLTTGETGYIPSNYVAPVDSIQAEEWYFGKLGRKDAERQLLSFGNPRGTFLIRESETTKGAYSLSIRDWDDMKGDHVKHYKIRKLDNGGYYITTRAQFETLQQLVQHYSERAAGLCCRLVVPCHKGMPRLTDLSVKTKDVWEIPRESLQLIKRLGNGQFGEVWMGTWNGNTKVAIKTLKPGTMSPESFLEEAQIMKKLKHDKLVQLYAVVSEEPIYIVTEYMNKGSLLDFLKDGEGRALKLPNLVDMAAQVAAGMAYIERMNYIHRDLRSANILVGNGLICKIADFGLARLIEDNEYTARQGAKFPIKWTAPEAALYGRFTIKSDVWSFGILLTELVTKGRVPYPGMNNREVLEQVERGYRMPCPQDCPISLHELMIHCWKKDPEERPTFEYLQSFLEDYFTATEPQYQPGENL

Row | Sequence | SH2 binding enrichment (Grb2 SH2) | SH2 binding enrichment (c-Src SH2) | SH2 binding enrichment (SHP2-C SH2) | phosphorylation enrichment (Hck) | phosphorylation enrichment (EPHB2) | phosphorylation enrichment (Jak2) | phosphorylation enrichment (Fer (mouse)) | phosphorylation enrichment (FGFR3) | phosphorylation enrichment (AncSZ) | phosphorylation enrichment (FGFR1) | phosphorylation enrichment (c-Src) | phosphorylation enrichment (MERTK) | phosphorylation enrichment (EPHB1) | phosphorylation enrichment (Fyn) | phosphorylation enrichment (Fes) | phosphorylation enrichment (c-Abl (mouse))
1 | FMMMRYSQNIR [SDAD1_Y656_V660I] | 1.35 | 0.883 | 1.36 | 0.53 | 1.23 | 0.955 | 0.509 | 0.795 | 1.17 | 0.663 | 0.397 | 0.414 | 0.77 | 0.513 | 1.3 | 0.61
2 | FPKAHYHWLVL [APTX_Y214_R213H_YF] | 1.86 | 1.54 | 1.7 | 0.444 | 0.491 | 0.864 | 0.645 | 1.87 | 0.819 | 2.69 | 0.396 | 0.619 | 0.448 | 0.447 | 1.29 | 0.716
3 | FQKDVYDIPPS [NEDD9_Y177_YF] | 0.871 | 0.466 | 0.745 | 2.69 | 2.01 | 0.629 | 0.502 | 0.559 | 1.01 | 0.384 | 2.62 | 7.04 | 0.681 | 2.59 | 0.681 | 0.662
4 | FRAVKYLQMVG [AVPR2_Y117_C112Y_YF] | 0.96 | 0.552 | 3.15 | 0.319 | 0.393 | 0.902 | 0.366 | 0.518 | 0.889 | 0.387 | 0.496 | 0.366 | 0.509 | 0.397 | 1.26 | 0.629
5 | FRKNTYNVKST [SYNE2_Y575_I574T_YF] | 1.27 | 0.679 | 0.976 | 0.402 | 0.333 | 0.402 | 0.375 | 0.366 | 0.466 | 0.352 | 0.437 | 0.473 | 0.425 | 0.426 | 0.578 | 0.609
6 | FRVDCYKNFVA [FHL1_Y213_C209R_YF] | 0.993 | 0.656 | 0.703 | 0.511 | 0.68 | 1.11 | 0.58 | 0.956 | 1.23 | 0.542 | 0.502 | 0.496 | 0.783 | 0.566 | 1.49 | 0.979
7 | FSEVRYVKEPF [HIPK4_Y170_YF] | 1.03 | 0.487 | 0.783 | 0.483 | 0.527 | 0.584 | 0.505 | 0.884 | 0.748 | 0.586 | 0.44 | 0.414 | 0.403 | 0.513 | 0.831 | 0.676
8 | FSKTQYNQVPR [CXADR_Y318_S323R_YF] | 1.16 | 0.64 | 0.899 | 0.457 | 0.361 | 0.491 | 0.367 | 0.447 | 0.482 | 0.312 | 0.484 | 0.428 | 0.409 | 0.437 | 0.502 | 0.6
9 | FVFSFYHAFSG [ACTN4_Y265_S262F_YF] | 1.55 | 1.04 | 1.31 | 0.525 | 0.812 | 1.25 | 0.455 | 0.693 | 0.963 | 0.492 | 0.714 | 1.6 | 0.808 | 0.505 | 1.1 | 0.994
10 | FVGGFYGGCNE [CTSC_Y352_YF] | 0.895 | 0.589 | 0.563 | 1.02 | 0.752 | 1.27 | 0.941 | 0.918 | 1.22 | 0.632 | 0.784 | 0.516 | 0.696 | 0.666 | 1.42 | 0.86
11 | GARGRYVMGGP [TNK1_Y277] | 0.512 | 0.435 | 0.548 | 0.379 | 0.389 | 0.457 | 0.405 | 0.419 | 0.7 | 0.481 | 0.421 | 0.546 | 0.504 | 0.332 | 0.555 | 0.376
12 | GCRSKYVGLWR [KCNQ1_Y184_G189R] | 1.18 | 0.802 | 0.744 | 0.36 | 0.325 | 0.395 | 0.42 | 0.591 | 0.638 | 0.382 | 0.365 | 0.394 | 0.411 | 0.401 | 0.519 | 0.409
13 | GDPTEYFSTAI [IGSF22_Y501_YF] | 0.788 | 0.522 | 0.583 | 0.498 | 0.645 | 1.15 | 0.433 | 0.936 | 1.54 | 0.7 | 0.502 | 0.439 | 0.634 | 0.525 | 1.08 | 0.745
14 | GDSVQYNRTTD [MLPH_Y454_P451S] | 0.718 | 0.481 | 0.704 | 0.498 | 0.38 | 0.728 | 0.457 | 0.498 | 0.612 | 0.487 | 0.422 | 0.419 | 0.486 | 0.469 | 0.999 | 0.548
15 | GEDEPYAEPYA [APBA1_Y183_S184A] | 1.1 | 0.821 | 0.885 | 0.544 | 0.694 | 1.33 | 0.525 | 0.799 | 1.59 | 0.608 | 0.639 | 0.636 | 0.685 | 0.609 | 1.53 | 0.915
16 | GEIQEYGAPSD [ABCC1_Y1508] | 0.745 | 0.507 | 0.648 | 0.505 | 0.544 | 0.891 | 0.481 | 0.662 | 1.07 | 0.523 | 0.438 | 0.476 | 0.493 | 0.506 | 1.05 | 0.757
17 | GFCSWYRGWAP [TIMP3_Y195_YF] | 0.953 | 0.609 | 0.968 | 0.497 | 0.597 | 1.2 | 0.593 | 0.813 | 1.27 | 0.514 | 0.773 | 0.498 | 0.763 | 0.472 | 1.27 | 0.912

The next lines start with results.

Row | SH2 binding enrichment (Grb2 SH2) | SH2 binding enrichment (c-Src SH2) | SH2 binding enrichment (SHP2-C SH2) | Sequence | phosphorylation enrichment (Hck) | phosphorylation enrichment (EPHB2) | phosphorylation enrichment (Jak2) | phosphorylation enrichment (Fer (mouse)) | phosphorylation enrichment (FGFR3) | phosphorylation enrichment (AncSZ) | phosphorylation enrichment (FGFR1) | phosphorylation enrichment (c-Src) | phosphorylation enrichment (MERTK) | phosphorylation enrichment (EPHB1) | phosphorylation enrichment (Fyn) | phosphorylation enrichment (Fes) | phosphorylation enrichment (c-Abl (mouse))
18 | 0.818 | 0.538 | 0.91 | FNSLLYQVPTS [CALCOCO2_Y358_P357L] | 6.55 | 18.8 | 2.1 | 15 | 1.32 | 2.77 | 1.17 | 3.65 | 12.5 | 12 | 2.58 | 1.06 | 17.8
19 | 1.74 | 2.38 | 3.79 | FQCKHYACIRQ [TIMP3_Y182_S179C_YF] | 0.445 | 0.35 | 0.508 | 0.379 | 0.501 | 0.542 | 0.341 | 0.393 | 0.414 | 0.378 | 0.365 | 0.72 | 0.634
20 | 0.879 | 0.347 | 0.7 | FSMGCYEISLE [HMGCL_Y198_G203E_YF] | 0.758 | 0.751 | 1.31 | 1.14 | 0.973 | 2.14 | 0.541 | 1.51 | 0.623 | 0.913 | 0.898 | 1.53 | 1.2
21 | 0.817 | 1.02 | 0.688 | FSQQTYCRVSN [ABCD1_Y180_Y181C] | 1.34 | 2.1 | 0.764 | 0.558 | 0.644 | 0.875 | 0.538 | 0.881 | 0.745 | 3.39 | 0.557 | 0.981 | 0.76
22 | 0.86 | 0.82 | 0.672 | FSQQTYYRVSN [ABCD1_Y180] | 3.2 | 1.06 | 6.78 | 0.392 | 4.51 | 0.831 | 6.2 | 3.18 | 2.85 | 1.83 | 1.18 | 0.756 | 0.72
23 | 1.71 | 1.03 | 1.19 | FTFTSYFMHWV [IGHV1-46_Y51_YF] | 0.451 | 0.648 | 2.37 | 0.495 | 0.765 | 1.16 | 0.5 | 0.608 | 0.391 | 0.437 | 0.474 | 1.13 | 1.05
24 | 1.2 | 0.705 | 1.01 | FVSIVYNDSGE [TSC2_Y1650] | 0.611 | 0.702 | 0.942 | 0.52 | 0.725 | 0.951 | 0.559 | 0.516 | 0.571 | 0.509 | 0.596 | 0.993 | 0.647
25 | 0.816 | 0.556 | 0.447 | GADDSYYTARS [ZAP70_Y492] | 0.737 | 0.517 | 1 | 0.482 | 0.652 | 1 | 0.551 | 0.742 | 0.43 | 0.488 | 0.594 | 1.05 | 0.938
26 | 0.827 | 0.518 | 0.721 | GAVDTYCRHNY [HLA-DRB1_Y107_A102G] | 0.475 | 0.418 | 0.708 | 0.374 | 0.594 | 0.724 | 0.531 | 0.575 | 0.443 | 0.475 | 0.443 | 0.763 | 0.755
27 | 0.875 | 0.531 | 0.899 | GCRSKSVGLWG [KCNQ1_Y184_Y184S] | 0.423 | 0.488 | 0.539 | 0.365 | 0.382 | 0.51 | 0.429 | 0.436 | 0.389 | 0.38 | 0.344 | 0.62 | 0.477
28 | 0.825 | 0.773 | 0.759 | GDAMLYYPSVS [GPR143_Y177_A173D] | 2.77 | 0.702 | 3.08 | 1.27 | 4.78 | 0.95 | 5.91 | 2.22 | 4.84 | 0.763 | 0.957 | 0.736 | 1.36
29 | 0.647 | 0.374 | 0.478 | GDPTEYYITAI [IGSF22_Y501_S503I] | 0.562 | 0.647 | 1.38 | 0.611 | 2.6 | 1.95 | 2.91 | 0.703 | 0.399 | 0.594 | 0.598 | 1.1 | 0.809
30 | 0.959 | 0.619 | 0.734 | GDPTEYYSTAI [IGSF22_Y501] | 0.809 | 0.555 | 0.954 | 0.738 | 1.74 | 1.77 | 2.04 | 0.87 | 0.497 | 0.598 | 0.599 | 0.873 | 0.636
31 | 1.16 | 0.716 | 1.01 | GEEIKYMLWLL [OTC_Y55_S60L] | 0.663 | 0.554 | 0.912 | 1.88 | 0.975 | 1 | 0.752 | 0.544 | 1.58 | 0.722 | 0.5 | 1.55 | 0.77
32 | 0.601 | 0.501 | 0.358 | GEFHVYRHLRR [PRKRIP1_Y82] | 0.57 | 0.465 | 0.896 | 0.4 | 0.581 | 1.3 | 0.57 | 0.518 | 0.494 | 0.43 | 0.484 | 0.863 | 0.601
33 | 0.672 | 0.581 | 0.633 | GFIISYREEEQ | 0.456 | 0.5 | 1.34 | 0.644 | 0.729 | 1.41 | 0.478 | 0.399 | 0.313 | 0.495 | 0.488 | 1.27 | 0.598
